Measured values published in paper PMC11094075, “Ago2/CAV1 interaction potentiates metastasis via controlling Ago2 localization and miRNA action” (EMBO Reports, 2024).

Target: T1, HA-tagged wild-type Ago2 (HA-Ago2Wt), in Ago2-knockout A549 and HCC1806 cells (human, UniProt Q9UKV8 1-859)
T1 construct: Argonaute-2 (Ago2), human; source: lentiviral (pLV-EF1a-HA-Ago2-Blast), Ago2-knockout A549 and HCC1806 cells, in lysate; not shown: HA, N-terminal, kept
Assay: co-IP; Ago2-knockout A549 and HCC1806 cells expressing HA-Ago2Wt, HA-Ago2K212A or HA-Ago2K212R; IP with anti-HA, blot for endogenous CAV1; ratio pCAV1/pHA; vehicle or TM (10 µM)
Conditions: partners not purified

T1 sequence (Q9UKV8 whole entry): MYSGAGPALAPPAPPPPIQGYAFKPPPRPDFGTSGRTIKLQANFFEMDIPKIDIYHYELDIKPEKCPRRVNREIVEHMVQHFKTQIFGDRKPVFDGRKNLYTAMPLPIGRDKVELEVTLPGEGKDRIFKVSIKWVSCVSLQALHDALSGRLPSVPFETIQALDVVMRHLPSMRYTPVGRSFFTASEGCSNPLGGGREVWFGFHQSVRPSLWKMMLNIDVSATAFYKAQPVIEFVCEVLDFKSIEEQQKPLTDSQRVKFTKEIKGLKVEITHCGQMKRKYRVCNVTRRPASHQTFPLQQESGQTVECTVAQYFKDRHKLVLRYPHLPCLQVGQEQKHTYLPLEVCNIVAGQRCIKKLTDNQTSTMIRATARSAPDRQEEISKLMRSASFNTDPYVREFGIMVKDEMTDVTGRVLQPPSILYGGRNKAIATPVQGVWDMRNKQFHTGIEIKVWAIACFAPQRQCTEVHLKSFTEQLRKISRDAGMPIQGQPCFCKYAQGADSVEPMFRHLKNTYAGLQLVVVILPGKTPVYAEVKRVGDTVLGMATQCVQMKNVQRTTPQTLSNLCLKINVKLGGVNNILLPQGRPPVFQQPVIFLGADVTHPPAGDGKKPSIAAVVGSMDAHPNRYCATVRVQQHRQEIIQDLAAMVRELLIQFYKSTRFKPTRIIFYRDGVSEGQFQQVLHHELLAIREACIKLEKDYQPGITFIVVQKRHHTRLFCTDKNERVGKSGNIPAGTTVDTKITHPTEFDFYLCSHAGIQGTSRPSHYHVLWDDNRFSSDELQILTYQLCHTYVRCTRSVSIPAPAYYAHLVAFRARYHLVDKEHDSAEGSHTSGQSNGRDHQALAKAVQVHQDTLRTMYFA

B1: Caveolin-1 (CAV1), endogenous (natural protein, UniProt Q03135 1-178, looked up)
chain: MSGGKYVDSEGHLYTVPIREQGNIYKPNNKAMADELSEKQVYDAHTKEIDLVNRDPKHLNDDVVKIDFEDVIAEPEGTHSFDGIWKASFTTFTVTKYWFYRLLSALFGIPMALIWGIYFAILSFLHIWAVVPCIKSFLIEIQCISRVYSIYVHTVCDPLFEAVGKIFSNVRINLQKEI
notes: Caveolin-1 (CAV1), human; source: endogenous
percent of pCAV1/pHA left in cells treated with TM (10 µM) against vehicle: ~49%
